Measured values taken from PMC10167327, “Inositol pyrophosphates activate the vacuolar transport chaperone complex in yeast by disrupting a homotypic SPX domain interaction” (Nature Communications, 2023).
Where a chain is given by its changes, count along the chain named.

B1: Vtc4* (Vtc4(1–487), SPX and TTM domains of Vtc4 without the transmembrane domain) (domain or fragment)
chain: not shown
modifications: RED-tris-NTA 2nd generation dye on the His tag (MST); RED-NHS 2nd generation dye (MST with TTM2)
notes: Vtc4, catalytic subunit of the vacuolar transporter chaperone (VTC) complex, yeast, residues 1-487 (SPX and TTM domains, no transmembrane domain); pET27b(+) construct from GenScript with a C-terminal TEV site and His10 tag; The dye is absent in NMR and cross-linking; also called Vtc4ΔTM; source: E. coli Lemo21(DE3) BL21, purified (HisTrap, Superdex 200); not shown: His10, C-terminal, kept
B2: SPX2 S187A (domain or fragment, S. cerevisiae, UniProt P43585 1-201, looked up)
chain: MLFGVKLANEVYPPWKGSYINYEGLKKFLKEDSVKDGSNDKKARWDDSDESKFVEELDKELEKVYGFQLKKYNNLMERLSHLEKQTDTEAAIKALDADAFQRVLEELLSESTELDNFKRLNFTGFAKIVKKHDKLYPKYPSVKSLLEVRLKELPSHSEEYSPLLYRISFLYNILRSNFNTASEPLAAASKFSSIVSNDIDM
notes: Vtc2, S. cerevisiae, residues 1-201 (SPX2) with a point mutation in helix α7; also called serine 187 to alanine; source: E. coli Lemo21(DE3) BL21, purified; not shown: His5, C-terminal, cleaved
B3: SPX2 K127A (domain or fragment, S. cerevisiae, UniProt P43585 1-201, looked up)
chain: B2 chain with K127A, A187S
notes: Vtc2, S. cerevisiae, residues 1-201 (SPX2) with a pseudo-active point mutation; source: E. coli Lemo21(DE3) BL21, purified; not shown: His5, C-terminal, cleaved
B4: SPX2 N121A (domain or fragment, S. cerevisiae, UniProt P43585 1-201, looked up)
chain: B2 chain with N121A, A187S
notes: as for B3
B5: SPX2 S189A (domain or fragment, S. cerevisiae, UniProt P43585 1-201, looked up)
chain: B2 chain with A187S, S189A
notes: Vtc2, S. cerevisiae, residues 1-201 (SPX2) with a point mutation in helix α7; also called serine 189 to alanine; source: E. coli Lemo21(DE3) BL21, purified; not shown: His5, C-terminal, cleaved
B6: SPX2 Y19F (domain or fragment, S. cerevisiae, UniProt P43585 1-201, looked up)
chain: B2 chain with Y19F, A187S
notes: as for B3
B7: SPX2 (SPX domain of Vtc2, Vtc2(1–201)) (domain or fragment, S. cerevisiae, UniProt P43585 1-201, looked up)
chain: B2 chain with A187S
notes: Vtc2, S. cerevisiae, residues 1-201 (SPX domain with helix α7 and the C-terminal linker); Residues of the TEV site may remain at the C-terminus after cleavage; also called Vtc2-SPX domain; source: E. coli Lemo21(DE3) BL21, purified (HisTrap, TEV, reversed HisTrap, cation exchange, Superdex 75); not shown: His5, C-terminal, cleaved
B8: SPX2∆α7 (Vtc2(1–182)) (domain or fragment, S. cerevisiae, UniProt P43585 1-182, looked up)
chain: MLFGVKLANEVYPPWKGSYINYEGLKKFLKEDSVKDGSNDKKARWDDSDESKFVEELDKELEKVYGFQLKKYNNLMERLSHLEKQTDTEAAIKALDADAFQRVLEELLSESTELDNFKRLNFTGFAKIVKKHDKLYPKYPSVKSLLEVRLKELPSHSEEYSPLLYRISFLYNILRSNFNTAS
notes: Vtc2, S. cerevisiae, residues 1-182 (SPX domain without helix α7 and the C-terminal linker); source: E. coli Lemo21(DE3) BL21, purified (as SPX2, cation exchange in 20 mM MES pH 6.0); not shown: His5, C-terminal, cleaved

Columns and labels:
Assay in all cases: MST; His-tagged Vtc4* or TTM4 labelled with RED-tris-NTA 2nd generation dye, titrated with Vtc2* or SPX2 proteins; MST buffer 15 mM HEPES pH 7.0, 50 mM NaCl, 2 mM DTT; Monolith NT.115, 100 % laser power
Conditions in all cases: both partners purified
[1] = molecular target: T1, Vtc2* (Vtc2(1–553), SPX and TTM domains of Vtc2 without the transmembrane domain) (S. cerevisiae, UniProt P43585 1-553)
T1 construct: Vtc2, subunit of the vacuolar transporter chaperone (VTC) complex, S. cerevisiae, residues 1-553 (SPX and TTM domains, no transmembrane domain); pET27b(+) construct from GenScript with a C-terminal TEV site and His10 tag; source: E. coli Lemo21(DE3) BL21, purified (HisTrap, Superdex 200)
T1 sequence (looked up): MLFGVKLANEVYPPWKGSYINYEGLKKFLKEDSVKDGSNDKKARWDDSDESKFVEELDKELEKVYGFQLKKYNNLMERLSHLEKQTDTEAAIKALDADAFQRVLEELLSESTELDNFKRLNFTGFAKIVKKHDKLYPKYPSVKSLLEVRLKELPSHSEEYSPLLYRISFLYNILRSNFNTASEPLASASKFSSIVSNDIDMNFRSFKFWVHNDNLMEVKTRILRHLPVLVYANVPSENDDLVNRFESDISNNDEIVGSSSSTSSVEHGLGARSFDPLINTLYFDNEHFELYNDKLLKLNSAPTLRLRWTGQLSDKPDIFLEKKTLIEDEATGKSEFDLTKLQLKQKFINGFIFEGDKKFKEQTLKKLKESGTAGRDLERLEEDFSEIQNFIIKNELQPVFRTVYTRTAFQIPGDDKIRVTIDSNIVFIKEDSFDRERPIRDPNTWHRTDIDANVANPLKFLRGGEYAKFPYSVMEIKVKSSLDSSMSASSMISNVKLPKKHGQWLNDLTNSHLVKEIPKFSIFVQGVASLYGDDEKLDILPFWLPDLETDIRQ

[2] = molecular target: B1
[3] = molecular target: T2, TTM4 (TTM domain of Vtc4, Vtc4(192–487)) (S. cerevisiae, UniProt P47075 192-487, RED-tris-NTA 2nd generation dye on the His tag)
T2 construct: Vtc4, yeast, residues 192-487 (triphosphate tunnel metalloenzyme domain); pET27b(+) construct from GenScript with a C-terminal TEV site and His10 tag; source: E. coli Lemo21(DE3) BL21, purified (HisTrap, Superdex 200); not shown: His10, C-terminal, kept
T2 sequence (P47075 192-487): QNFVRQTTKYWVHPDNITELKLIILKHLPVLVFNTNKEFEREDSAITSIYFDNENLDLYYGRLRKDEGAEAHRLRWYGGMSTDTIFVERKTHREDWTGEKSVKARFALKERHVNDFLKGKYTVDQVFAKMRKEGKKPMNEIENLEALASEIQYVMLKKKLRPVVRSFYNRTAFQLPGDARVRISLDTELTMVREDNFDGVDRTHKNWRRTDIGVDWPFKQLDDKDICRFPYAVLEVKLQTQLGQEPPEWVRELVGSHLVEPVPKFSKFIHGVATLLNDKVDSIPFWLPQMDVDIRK

B1
Kd [1]: 13.8 µM

B2
binding result [2]: binds

B3
binding result [2]: binds

B4
binding result [2]: binds

B5
binding result [2]: binds

B6
binding result [2]: binds

B7
fold reduction of affinity against Vtc4* [3]: ~20 fold

B8
binding result [2]: binds
